Data taken from paper PMC7042713.

How the values were obtained:
Assay in all cases: SEC-MALS
AtSOK1 DIX domain D78A = conditions: 2mg/ml D78A; parent value is 2mg/ml wt; calculated monomer mass of AtSOK1 DIX 25 kD (panel A); parent: 87
BhDIX K82A = conditions: monomer mass of BhDIX printed in panel as 24kD; parent: 90
BhDIX Y10A = conditions: parent: est. 9.0e4; read off a plot
CpDIX D67A = conditions: monomer mass of CpDIX printed in panel as 22kD; parent: 90
BhDIX L8A = conditions: parent: est. 9.0e4; read off a plot

Work on “AtSOK1 DIX domain (Arabidopsis thaliana SOSEKI1), wild type D78A” yielded an other: observed molar mass (SEC-MALS, self-association) (AtSOK1 DIX domain D78A) of 25 kD.
For Blastocystis hominis DIX domain K82A, the other: observed molar mass (SEC-MALS, self-association) (BhDIX K82A) was 23 kD.
Work on Blastocystis hominis DIX domain Y10A yielded an other: observed molar mass (SEC-MALS, self-association) (BhDIX Y10A) of 35000 g/mol.
Work on Cryptosporidium parvum DIX domain D67A yielded an other: observed molar mass (SEC-MALS, self-association) (CpDIX D67A) of 22 kD.
For Blastocystis hominis DIX domain L8A, the other: observed molar mass (SEC-MALS, self-association) (BhDIX L8A) was 55000 g/mol.
